Test results published in PMC12529457, “Selection of DNA Aptamers Against Parathyroid Hormone for Electrochemical Impedimetric Biosensor System Development”.

What was measured:
Test in all cases: fluorescent magnetic bead binding assay; peptide on beads, aptamer 100-2500 nM; Bead assay: SELEX conditions (PBS, room temperature), 30 min incubation then wash, pH not stated; EIS: 30 min at ambient temperature, PBS wash, read in 0.1 M KCl with 5 mM ferri/ferrocyanide
Details in all cases: protein: commercial; tags: none stated; amine-coupled to carboxy magnetic beads
PTH (53-84) = biological target: T1, PTH (53-84) (UniProt P01270 84-115)
T1 chain: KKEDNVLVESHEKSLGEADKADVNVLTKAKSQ

PTH (1-34) = biological target: T2, PTH (1-34) (UniProt P01270 32-65)
T2 chain: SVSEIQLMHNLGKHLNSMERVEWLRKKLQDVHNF

PTH (1-84) = biological target: T3, PTH (1-84) (UniProt P01270 32-115)
T3 sequence: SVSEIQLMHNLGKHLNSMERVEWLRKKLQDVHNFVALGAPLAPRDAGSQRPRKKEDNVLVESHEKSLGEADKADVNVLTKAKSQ

For GCGTGGTATGTGCGTCGTCGCTAATGAATTTGTAGCCTAC (ssDNA) [Aptamer-PTH (53-84)], the Kd (PTH (53-84)) was 220 ± 57.5 nM.

In the case of GCGTGGTATGTGCATCGTCAGTGAGGGGTTGGCGGCCGAG (ssDNA) [Aptamer-PTH (1-34)], the Kd (PTH (1-34)) is reported as 516 ± 41 nM.

TATTGGTATGTGCGTCGTCGGTGACCTCTTTCACGGCCGG (ssDNA) [Aptamer-PTH (1-84)] was tested, and the Kd (PTH (1-84)) was 340 ± 23.3 nM.
